The values that follow come from patent US20250277029A1 (Amgen, published 2025).

For assay [1], the target named is human CB1 on stably transfected CB1 CHO cells (human, UniProt P21554 1-472). Nature of the assay: cell-based or functional assay.
In assay [2] the target is T1, GFP-fused huCB1-SMALP (human CB1 in styrene maleic acid lipoparticles) (human, UniProt P21554 1-472).
T1 construct: Prepared as in Luna V. et al. 2018; also called huCB1-GFP-SMALP; wtCB1-SMALP; not shown: GFP fusion
Nature of the assay: flow cytometry, yeast-displayed IgG, GFP MFI. (A flow cytometer gives signals particle by particle.)

For assay [3], the target named is T1, GFP-fused huCB1-SMALP (human CB1 in …). The assay is described as follows: flow cytometry, yeast-displayed IgG, GFP MFI. This is another data set of the same source.
The target of assay [4] is T2, His-tagged huCB1-ND (human CB1 in nanodisc) (human).
T2 construct: CB1 construct of Cell 167(3) (2016) 750-762 expressed in Sf9 cells; POPC:MSP1D1:CB1 480:8:1; also called CB1-nanodisc; huCB1-Nanodisc; not shown: histidine purification tag
The assay is described as follows: flow cytometry, yeast-displayed IgG, huCB1-ND over empty-ND.

The target in assay [5] is T2, His-tagged huCB1-ND (human CB1 in …). Nature of the assay: flow cytometry, yeast-displayed IgG, binding/display ratio.

T2 sequence (P21554 99-414): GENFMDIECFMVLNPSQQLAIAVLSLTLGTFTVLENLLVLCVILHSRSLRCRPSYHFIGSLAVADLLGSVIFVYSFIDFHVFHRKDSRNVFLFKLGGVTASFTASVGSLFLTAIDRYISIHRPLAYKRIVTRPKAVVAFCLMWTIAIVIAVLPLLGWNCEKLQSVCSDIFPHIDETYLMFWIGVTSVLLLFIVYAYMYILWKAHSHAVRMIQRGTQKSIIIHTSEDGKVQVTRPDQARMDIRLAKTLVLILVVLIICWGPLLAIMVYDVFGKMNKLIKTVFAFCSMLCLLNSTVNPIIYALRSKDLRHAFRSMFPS
human CB1 on stably transfected CB1 CHO cells, sequence (P21554 whole entry, the tested form may be a part): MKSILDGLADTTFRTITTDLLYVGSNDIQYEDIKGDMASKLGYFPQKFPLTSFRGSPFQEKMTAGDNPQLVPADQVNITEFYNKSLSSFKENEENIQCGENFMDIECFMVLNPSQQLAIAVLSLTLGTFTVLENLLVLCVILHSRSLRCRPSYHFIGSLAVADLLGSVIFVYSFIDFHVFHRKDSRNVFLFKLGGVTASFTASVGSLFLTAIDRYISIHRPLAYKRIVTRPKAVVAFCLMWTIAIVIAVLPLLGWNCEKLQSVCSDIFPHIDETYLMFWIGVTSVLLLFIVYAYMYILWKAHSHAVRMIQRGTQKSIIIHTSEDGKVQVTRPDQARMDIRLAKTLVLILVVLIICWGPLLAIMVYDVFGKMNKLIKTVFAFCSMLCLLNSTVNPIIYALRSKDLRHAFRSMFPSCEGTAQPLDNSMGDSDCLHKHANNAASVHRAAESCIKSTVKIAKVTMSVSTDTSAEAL
T1 sequence (P21554 whole entry, the tested form may be a part): as above

B1: LIBC680812-1 (IgG1 SEFL2 mAb) (antibody, V domains shown)
VH: QVQLQESGPGLVKPSQTLSLTCTVSGGSIRRGGDYWGWIRQHPGKGLEWIGHVYQTGSTKYNPSFKDRATISVNTYKNQFSLKLSSVTAADTAVYYCARNYDTLTGYSYYYYGMDVWGQGTTVTVSS
VL: DIQMTQSPSSLSASVGDRVTITCRASQSISSYLNWYQQKPGKAPKLLIYSARRLSSGVPSRFSGSGSGTDFTLTISSLQPEDFATYYCQQYRSYPITFGGGTKVEIKR
B1: in assay [1], the “IC50 (nM, n = 4), antagonist activity, TR-FRET cAMP assay” value (shortened to “IC50 (nM, n = 4), antagonist activity”) is 0.68 nM.

B2: LIBC528116-1 + VK1 germline fix(es) (IgG1 SEFL2 mAb) (antibody, V domains shown)
VH: QVQLQESGPGLVKPSQTLSLTCTVSGGSIRRGGDYWAWIRQHPGKGLEWIGHVYYTGSTNYNPRFKDRATISVNTYKNQFSLKLSSVTAADTAVYYCARNYDTVTGYSYYYYGMDVWGQGTTVTVSS
VL: DIQLTQSPSTLSASVGDRVTITCRASQSISNYLNWYQQKPGKAPKLLIYAASSLHSGVPSRFSGSGSGTDFTLTISSLQPEDFASYYCQQYQSYPLTFGQGTKVEIKR
For the molecule B2, in assay [1], the “IC50 (nM, n = 4), antagonist activity” value stood at 2.02 nM.

B3: LIBC681594-1 (IgG1 SEFL2 mAb) (antibody, V domains shown)
VH: QVQLQESGPGLVKPSQTLSLTCTVSGGSIRRGGDYWAWIRQHPGKGLEWIGHIYQTGSTNYNPRFKGRATISVNTYKNQFSLKLSSVTAADTAVYYCARNYDTLTGYSYYYYGMDVWGQGTTVTVSS
VL: DIQMTQSPSSLSASVGDRVTITCRASQSISSYLNWYQQKPGKAPKLLIYKARKLSSGVPSRFSGSGSGTDFTLTISSLQPEDFATYYCQQFGSMPLTFGGGTKVEIKR
B3: the “IC50 (nM, n = 4), antagonist activity” value in assay [1] worked out at 1.24 nM.

B4: LIBC681737-1(LC:P12S) (IgG1 SEFL2 mAb) (antibody, V domains shown)
VH: QVQLQESGPGLVKPSQTLSLTCTVSGGSIRRGGDYWAWIRQHPGKGLEWIGHVYYTGSTNYNPRFKDRATISVNTYKNQFSLKLSSVTAADTAVYYCARNYDTVTGYSYYYYGMDVWGQGTTVTVSS
VL: DIQMTQSPSSLSASVGDRVTITCRASQSISSYLNWYQQKPGKAPKLLIYSARRLASGVPSRFSGSGSGTDFTLTISSLQPEDFATYYCQQYYHPPITFGGGTKVEIKR
With B4, the “IC50 (nM, n = 4), antagonist activity” value in assay [1] is 0.55 nM.

B5: LIBC681593-1 (IgG1 SEFL2 mAb) (antibody, V domains shown)
VH: QVQLQESGPGLVKPSQTLSLTCTVSGGSIRRGGDYWAWIRQHPGKGLEWIGHIYQTGSTNYNPRFKGRATISVNTYKNQFSLKLSSVTAADTAVYYCARNYDTLTGYSYYYYGMDVWGQGTTVTVSS
VL: DIQMTQSPSSLSASVGDRVTITCRASQSISSYLNWYQQKPGKAPKLLIYNARRLGSGVPSRFSGSGSGTDFTLTISSLQPEDFATYYCQQYRSSPVTFGGGTKVEIKR
With B5, in assay [1], the “IC50 (nM, n = 4), antagonist activity” value stood at 0.61 nM.

B6: LIBC528148-1 (antibody, V domains shown)
VH: QVQLQESGPGLVKPSQTLSLTCTVSGGSIRRGGDYWSWIRQHPGKGLEWIGHIYQSGQTKYNPKLKGRATISVDTYKNQFSLKLSSVTAADTAVYYCARDYDILTGYSYYYYGMDVWGQGTTVTVSS
VL: DIQLTQSPSTLSASVGDRVTITCRASQSISNYLNWYQQKPGKAPKLLIYAASSLHSGVPSRFSGSGSGTDFTLTISSLQPEDFASYYCQQYQSYPLTFGQGTKVEIKR
For B6, the “100 nM huCB1-GFP-SMALP binding (normalized to 10D10N35Y)” value in assay [2] stood at 3.38 fold.

B7: 10D10 (antibody, V domains shown)
VH: QVQLQESGPGLVKPSQTLSLTCTVSGGSIRRGGDYWSWIRQHPGKGLEWIGYIYYSGSTNYNPSLKSRATISVDTSKNQFSLKLSSVTAADTAVYYCARDYDILTGYSYYYYGMDVWGQGTTVTVSS
VL: not shown
As to B7, the “IC50 (nM, n = 4), antagonist activity” value in assay [1] came out at 347 nM.

B8: LIBC674090-1 (IgG1 SEFL2 mAb) (antibody, V domains shown)
VH: QVQLQESGPGLVKPSQTLSLTCTVSGGSIRRGGDYWSWIRQHPGKGLEWIGHIYYAGSTAYNPNFRGRVRISVNTYKNQFSLKLSSVTAADTAVYYCARGYDTSGYSYYYYGLDVWGQGTTVTVSS
VL: DIVMTQSPLSLPVTPGEPASISCRSSQSLLHRSGYNYLDWYLQKPGQSPQLLIYQGSNRASGVPDRFSGSGSGTDFTLKISRVEAEDVGVYYCMQSLQTPRTFGQGTKVEIKR
As to B8, the “IC50 (nM, n = 4), antagonist activity” value in assay [1] turned out to be 1.76 nM.

B9: LIBC674200-1 (LC: G76D) (IgG1 SEFL2 mAb) (antibody, V domains shown)
VH: QVQLQESGPGLVKPSQTLSLTCTVSGGSIRRGGDYWSWIRQHPGKGLEWIGHVYYTGQTAYNPNFRNRVRISVNTYKNQFSLKLSSVTAADTAVYYCARGYDVSGYSYYYYGMDVWGQGTTVTVSS
VL: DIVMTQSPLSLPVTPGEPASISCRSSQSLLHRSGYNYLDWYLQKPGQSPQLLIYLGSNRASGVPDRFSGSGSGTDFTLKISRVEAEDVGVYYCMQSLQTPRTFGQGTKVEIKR
With B9, in assay [1], the “IC50 (nM, n = 4), antagonist activity” value amounted to 2.23 nM.

B10: LIBC523844-1 (antibody, V domains shown)
VH: QVQLQESGPGLVKPSQTLSLTCTVSGGSIRRGGDYWSWIRQHPGKGLEWIGHVYYTGSTKYNPSFKDRATISVNTYKNQFSLKLSSVTAADTAVYYCARDYDILTGYSYYYYGMDVWGQGTTVTVSS
VL: DIVMTQSPLSLPVTPGEPASISCRSSQSLLSSSGANYVDWYLQKPGQSPQLLIYQGSNRASGVPDRFSGSGSGTDFTLKISRVEAEDVGVYYCRQARALPRTFGQGTKVEIKR
With B10, the “100 nM huCB1-SMALP binding (normalized to 10D10)” value in assay [3] turned out to be 6.69 fold. For the same molecule, the “specific huCB1 binding (CB1 ND/Empty ND ratio)” value in assay [4] worked out at 8.58 ratio. Further, in assay [5], the “relative binding to 0.2 nM huCB1-ND (relative to 10D10N35Y)” value (“relative binding to 0.2 nM huCB1-ND” below) worked out at 3.78 fold.

B11: LIBC674229-1 (IgG1 SEFL2 mAb) (antibody, V domains shown)
VH: QVQLQESGPGLVKPSQTLSLTCTVSGGSIRRGGDYWSWIRQHPGKGLEWIGHIYQTGQTKYNPSFKGRVRISVNTYKNQFSLKLSSVTAADTAVYYCARGYDVSGYSYYYYGMDVWGQGTTVTVSS
VL: DIVMTQSPLSLPVTPGEPASISCRSSQSLLHRSGYNYLDWYLQKPGQSPQLLIYQGSNRASGVPDRFSGSGSGTDFTLKISRVEAEDVGVYYCMQSLQTPRTFGQGTKVEIKR
As for B11, in assay [1], the “IC50 (nM, n = 4), antagonist activity” value is 4.16 nM.

B12: LIBC674200-1 (IgG1 SEFL2 mAb) (antibody, V domains shown)
VH: QVQLQESGPGLVKPSQTLSLTCTVSGGSIRRGGDYWSWIRQHPGKGLEWIGHVYYTGQTAYNPNFRNRVRISVNTYKNQFSLKLSSVTAADTAVYYCARGYDVSGYSYYYYGMDVWGQGTTVTVSS
VL: DIVMTQSPLSLPVTPGEPASISCRSSQSLLHRSGYNYLDWYLQKPGQSPQLLIYLGSNRASGVPGRFSGSGSGTDFTLKISRVEAEDVGVYYCMQSLQTPRTFGQGTKVEIKR
In the case of B12, the “IC50 (nM, n = 4), antagonist activity” value in assay [1] came out at 2.39 nM.

B13: LIBC523596-1 (antibody, V domains shown)
VH: QVQLQESGPGLVKPSQTLSLTCTVSGGSIRRGGDYWSWIRQHPGKGLEWIGHVYQSGQTAYNPNFEDRATISVNTYKNQFSLKLSSVTAADTAVYYCAREYDVVSGYSYYYYGMDVWGQGTTVTVSS
VL: DIVMTQSPLSLPVTPGEPASISCRSSQSLLTSSGYNYVDWYLQKPGQSPQLLIYQGSNRASGVPDRFSGSGSGTDFTLKISRVEAEDVGVYYCMQAVKIPRTFGQGTKVEIKR
As for B13, the “100 nM huCB1-SMALP binding (normalized to 10D10)” value in assay [3] amounted to 4.19 fold.

B14: LIBC523748-1 (antibody, V domains shown)
VH: QVQLQESGPGLVKPSQTLSLTCTVSGGSIRRGGDYWSWIRQHPGKGLEWIGHVYYTGSTKYNPSFEGRATISVKTYKNQFSLKLSSVTAADTAVYYCARDYDILTGYSYYYYGMDVWGQGTTVTVSS
VL: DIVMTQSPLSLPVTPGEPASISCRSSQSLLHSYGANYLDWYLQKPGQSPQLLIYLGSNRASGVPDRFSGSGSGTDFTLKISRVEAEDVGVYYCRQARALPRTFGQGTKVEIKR
As to B14, the “100 nM huCB1-SMALP binding (normalized to 10D10)” value in assay [3] is 6.12 fold. Moreover, in assay [4], the “specific huCB1 binding (CB1 ND/Empty ND ratio)” value is 5.33 ratio. Further, in assay [5], the “relative binding to 0.2 nM huCB1-ND” value worked out at 4.41 fold.

B15: LIBC523760-1 (antibody, V domains shown)
VH: QVQLQESGPGLVKPSQTLSLTCTVSGGSIRRGGDYWSWIRQHPGKGLEWIGHVYQTGSTKYNPKFKGRATISVNTYKNQFSLKLSSVTAADTAVYYCARDYDILTGYSYYYYGMDVWGQGTTVTVSS
VL: DIVMTQSPLSLPVTPGEPASISCRSSQSLLTSSGANYVDWYLQKPGQSPQLLIYLGSNRASGVPDRFSGSGSGTDFTLKISRVEAEDVGVYYCRQAVGTPRTFGQGTKVEIKR
As to B15, in assay [3], the “100 nM huCB1-SMALP binding (normalized to 10D10)” value turned out to be 5.7 fold. The “specific huCB1 binding (CB1 ND/Empty ND ratio)” value in assay [4] amounted to 7.21 ratio. Also, the “relative binding to 0.2 nM huCB1-ND” value in assay [5] turned out to be 4.19 fold.
